# Where two headings read alike, the source gives them in different places.
# T1: Tyro3 (rhTyro3/Dtk-Fc chimera) (Homo sapiens, UniProt Q06418)
# T1 construct: Soluble recombinant antigens corresponding to the extracellular domains of members of the human TAM receptor family; Fc; purchased R&D Systems 859-DK
# T1 sequence (Q06418 41-429 limits assumed): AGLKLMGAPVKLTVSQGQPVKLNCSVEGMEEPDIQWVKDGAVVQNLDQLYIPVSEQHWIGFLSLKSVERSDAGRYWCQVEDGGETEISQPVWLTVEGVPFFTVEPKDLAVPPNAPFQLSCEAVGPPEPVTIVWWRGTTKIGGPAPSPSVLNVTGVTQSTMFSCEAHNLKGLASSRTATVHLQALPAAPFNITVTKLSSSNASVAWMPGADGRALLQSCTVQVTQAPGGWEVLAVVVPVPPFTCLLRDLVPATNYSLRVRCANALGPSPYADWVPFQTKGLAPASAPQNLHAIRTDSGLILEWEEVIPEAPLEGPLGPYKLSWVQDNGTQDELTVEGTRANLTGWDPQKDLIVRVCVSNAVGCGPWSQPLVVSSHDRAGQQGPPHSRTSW
# Legend:
# [1] = molecular target: T2, human Axl (rhAxl-Fc chimera) (Homo sapiens, UniProt P30530); assay: Biacore kinetic analysis (surface plasmon resonance) on immobilised rhAxl-Fc; type: binding
# T2 construct: Soluble recombinant antigens corresponding to the extracellular domains of members of the human TAM receptor family; Fc; purchased R&D Systems 154-AL
# Procedure: Kinetic analysis of murine MAb 10G5 interacting with rhAxl immobilized on the surface of the Biacore sensor chip. Overlay plots of sensograms for different antibody concentrations (0.3-166.7 nM for murine 10G5) are shown. The precise kinetic analysis was performed using BIA evaluation software and curve fitting according to 1:1 Langmuir binding model. […]
# Affinity determination of anti-Axl antibody 10G5 was performed at 25° C. by surface plasmon resonance measurements using Biacore 3000 instrument (GE Healthcare). As a solid antigen-coated surface, a sensor chip CM5 with immobilized rhAxl-Fc chimera (R&D Systems, Cat. no. 154-AL) at density 190 RU was used.
# For the kinetics measurements, different concentrations of anti-Axl antibodies (from 0.3 to 666.7 nM) in HBS-EP buffer (Biacore, Cat. no. BR-1001-88) were injected at flow rate of 30 μL/min with 3 min injection time followed by 5 min dissociation (buffer alone). After each cycle, the surface was regenerated by 30 sec injection of a regeneration solution (10 mM HCl, 1 M NaCl) at flow rate 50 μL/min.
# The kinetic association (on-rate, kon) and dissociation (off-rate, koff) rates were calculated using BIAevaluation software and 1:1 Langmuir binding model. The equilibrium dissociation constant (KD) was calculated as the koff/kon ratio. The half-life (t1/2) of the formed antibody-antigen complexes was calculated as the ln 2/koff ratio. […]
# [2] = molecular target: T3, mouse Axl (rmAxl-Fc chimera; Mm-Axl-Fc) (Mus musculus, UniProt Q00993); assay: Biacore binding analysis on immobilised mouse Axl
# T3 construct: The soluble recombinant antigens corresponding to human Axl (rhAxl-Fc chimera; R&D Systems, Cat. no; 154-AL), mouse Axl (rmAxl-Fc chimera; Fc; purchased R&D Systems 854-AX
# T3 sequence (Q00993 19-445 limits assumed, change not shown): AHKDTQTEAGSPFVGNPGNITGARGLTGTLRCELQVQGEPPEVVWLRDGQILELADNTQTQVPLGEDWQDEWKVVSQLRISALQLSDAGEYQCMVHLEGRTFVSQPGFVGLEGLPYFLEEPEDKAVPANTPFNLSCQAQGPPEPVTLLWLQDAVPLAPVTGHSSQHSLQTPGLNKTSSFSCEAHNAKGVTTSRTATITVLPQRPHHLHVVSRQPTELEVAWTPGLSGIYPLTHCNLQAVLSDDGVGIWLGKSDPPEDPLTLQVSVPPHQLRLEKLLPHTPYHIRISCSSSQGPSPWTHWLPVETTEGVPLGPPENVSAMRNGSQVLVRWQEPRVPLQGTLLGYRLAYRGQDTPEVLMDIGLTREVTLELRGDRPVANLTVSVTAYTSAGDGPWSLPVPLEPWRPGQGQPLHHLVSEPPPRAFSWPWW
# Procedure: (§1) The binding experiments were performed using Biacore 3000 instrument (GE Healthcare) at 25° C. The soluble recombinant antigens corresponding to human Axl (rhAxl-Fc chimera; R&D Systems, Cat. no. 154-AL), mouse Axl (rmAxl-Fc chimera; R&D Systems, R&D Systems; Cat. no. 854-AX) and human Tyro3 (rhTyro3/Dtk-Fc chimera; R&D Systems, Cat. no. 859-DK) were immobilized on the surface of CM5 sensor chip using amine coupling at the surface density of 1,308.0, 2,115.9 and 1,429.0 RU, respectively. The Biacore runs were performed in an automatic mode using Binding analysis wizard.
# (§2) The sample containing MAb 10G5 or recombinant mouse (rm) Axl-ligand Gas6 (R&D Systems, Cat. no. 986-GS/CF) at concentration 10 μg/mL in HBS-EP buffer (GE Healthcare) was injected over the surfaces with immobilized antigens at flow rate of 30 μL/min for 3 min (association) followed by 5 min dissociation.
# Sensor chip with immobilised Axl: Hs-Axl-Fc (638.2 RU), Mm-Axl-Fc (334.5 RU), Rhe-Axl-Fc (350.2 RU)
# All tests were performed in parallel on Hs-Axl-Fc, Mm-Axl-Fc and Rhe-Axl-Fc surfaces.
# [3] = molecular target: T1, Tyro3 (rhTyro3/Dtk-Fc chimera); assay: Biacore binding analysis on immobilised human Tyro3; conditions: 10 μg/mL in HBS-EP, 25° C.
# Procedure: (§3) All binding experiments were performed using Biacore 3000 instrument (GE Healthcare) at 25° C. Soluble recombinant antigens corresponding to the extracellular domains of members of the human TAM receptor family, Axl (rhAxl-Fc chimera; R&D Systems, Cat. no. 154-AL), Mer (rhMer-Fc chimera; R&D Systems, Cat. no. 891-MR) and Tyro3 (rhTyro3/Dtk-Fc chimera; R&D Systems, Cat. no. 859-DK) were immobilized on the surface of CM5 sensor chip using amine coupling at the surface density of 393.0, 303.6 and 364.0 resonance units (RU), respectively. The Biacore run was performed in an automatic mode using Binding analysis wizard. Samples containing MAb 10G5 at concentration 10 μg/mL in HBS-EP buffer (GE Healthcare) were injected over the surfaces with immobilized antigens at flow rate of 30 μL/min for 3 min (association) followed by 5 min dissociation.
# as §1, §2
# [4] = molecular target: T2, human Axl (rhAxl-Fc chimera); assay: Biacore binding analysis on immobilised human Axl; conditions: 10 μg/mL in HBS-EP, 25° C.
# Procedure: as §3, §1, §2
# The sequence of Axl receptor from cynomolgus monkey (Macaca fascicularis; SEQ ID NO: 27) was retrieved from WO2009062690A1. Based on the sequence, recombinant extracellular domain of cyno-Axl was generated by transient expression in CHO cells as a fusion protein with human Fc. The recombinant cyno-Axl-Fc was purified to homogeneity using Protein A-Sepharose (GE Healthcare). The binding experiments were performed using Biacore 3000 instrument (GE Healthcare) at 25° C. The soluble recombinant antigens corresponding to human Axl (rhAxl-Fc chimera; R&D Systems, Cat. no. 154-AL) and cyno-Axl were immobilized on the surface of CM5 sensor chip using amine coupling at the surface density of 775 and 880 RU, respectively. The Biacore runs were performed in an automatic mode using Binding analysis wizard.
# The sample containing MAb 10G5 or human Axl-specific MAb 5F11 (control) at concentration 10 μg/mL in HBS-EP buffer (GE Healthcare) was injected over the surfaces with immobilized antigens at flow rate of 30 μL/min for 3 min (association) followed by 5 min dissociation. […]
# [5] = rhAxl immobilized on Biacore sensor chip, 25° C., 1:1 Langmuir binding model
KD lower than that of the chimeric antibody ([1]; comparison referring to Table 3),"Off-rate (koff) [1, 5]","On-rate (kon) [1, 5]",Binding to mouse Axl [2],Binding to mouse Axl ([2]; listed as murine Gas 6),Binding to recombinant human Tyro3 [3],Binding to recombinant human Tyro3 ([3]; listed as murine Gas 6),Binding to human Axl [4],Binding to human Axl ([4]; listed as murine Gas 6),Molecule
at least 30%,0.000161 s⁻¹,1.54e+06 M⁻¹ s⁻¹,–,–,–,–,–,–,"H1L1: humanised 10G5 variant; presumably VH GH1 (SEQ ID NO: 1) with VL GL1 (SEQ ID NO: 3) (antibody, V domains shown, hu10G5 VH(GH1); hu10G5 VL(GL1)) VH: EVQLVQSGAGLVQPGGSVRLSCAASGYSFTDFYINWVRQAPGKGLEWIARIFPGGDNTYYNEKFKGRFTLSADTSSSTAYLQLNSLRAEDTAVYYCARRGLYYAMDYWGQGTLVTVSS VL: DIQMTQSPSSLSASVGDRVTITCRSSQSLVHSNGIPYLHWYQQKPGKAPKLLIYRVSNRFSGVPSRFSGSGSGTDFTLTISSLQPEDFATYYCSQGTHVPPTFGQGTKVEIK"
–,–,–,strong binding,binds strongly,somewhat weaker binding,more weakly,strong binding,binds strongly,mouse Gas6: recombinant mouse Axl-ligand Gas6 (R&D Systems) (protein) QCTPNPCDKKGTHICQDLMGNFFCVCTDGWGGRLCDKDVNECVQKNGGCSQVCHNKPGSFQCACHSGFSLASDGQTCQDIDECTDSDTCGDARCKNLPGSYSCLCDEGYTYSSKEKTCQDVDECQQDRCEQTCVNSPGSYTCHCDGRGGLKLSPDMDTCEDILPCVPFSMAKSVKSLYLGRMFSGTPVIRLRFKRLQPTRLLAEFDFRTFDPEGVLFFAGGRSDSTWIVLGLRAGRLELQLRYNGVGRITSSGPTINHGMWQTISVEELERNLVIKVNKDAVMKIAVAGELFQLERGLYHLNLTVGGIPFKESELVQPINPRLDGCMRSWNWLNGEDSAIQETVKANTKMQCFSVTERGSFFPGNGFATYRLNYTRTSLDVGTETTWEVKVVARIRPATDTGVLLALVGDDDVVPISVALVDYHSTKKLKKQLVVLAVEDVALALMEIKVCDSQEHTVTVSLREGEATLEVDGTKGQSEVSTAQLQERLDTLKTHLQGSVHTYVGGLPEVSVISAPVTAFYRGCMTLEVNGKILDLDTASYKHSDITSHSCPPVEHATP

# Reference: patent US11732048B2, “Anti-axl antagonistic antibodies” (BERGEN TEKNOLOGIOVERFØRING AS, priority 2016, dated 2023)
